Starred links: 1 amine or outer side, 2 acyl side, 3 side chain; linkers in the order of their positions; H or OH if unused. Positions of bridges follow the written chain, without caps; N, C: chain ends. Non-standard residues stand in square brackets, D forms with d. Primed or numbered codes have the meaning given here. No end group written: not given here. PyrS2″ = (S)-3-amino-1-((pent-4-en-1-yloxy)carbonyl)pyrrolidine-3-carboxylic acid (stapling residue), C=CCCCOC(=O)N1CC[C@@](N[*:1])(C(=O)[*:2])C1; B5(4) = 2,2-bis(4-pentenyl)glycine = 2-amino-2-(pent-4-en-1-yl)hept-6-enoic acid (stitching residue), C=CCCCC(CCCC=C)(N[*:1])C(=O)[*:2]; PyrS2 = (S)-3-amino-1-((pent-4-en-1-yloxy)carbonyl)pyrrolidine-3-carboxylic acid, C=CCCCOC(=O)N1CC[C@@](N[*:1])(C(=O)[*:2])C1; B5(19) = 2-amino-2-(pent-4-en-1-yl)hept-6-enoic acid (bis(4-pentenyl)glycine), C=CCCCC(CCCC=C)(N[*:1])C(=O)[*:2]; B5 = 2-amino-2-(pent-4-en-1-yl)hept-6-enoic acid, C=CCCCC(CCCC=C)(N[*:1])C(=O)[*:2]; Phe(3-COOH) = N[C@@H](Cc1cccc(C(=O)O)c1)C(=O)O; 2F3MeF = Cc1cccc(C[C@H](N[*:1])C(=O)[*:2])c1F; Phe(2-CF3) = N[C@@H](Cc1ccccc1C(F)(F)F)C(=O)O; Phe(3,4-F2) = N[C@@H](Cc1ccc(F)c(F)c1)C(=O)O; Phe(2-Cl) = N[C@@H](Cc1ccccc1Cl)C(=O)O; Bta = N[C@@H](Cc1csc2ccccc12)C(=O)O; αAllylPro = C=CC[C@@]1(C(=O)O)CCCN1; tBuAla = CC(C)(C)C[C@H](N)C(=O)O; 3Thi = N[C@@H](Cc1ccsc1)C(=O)O; PyrS2(4) = not defined here
T1: Bcat-Halo (UniProt P35222 1-781)
T1 sequence (looked up): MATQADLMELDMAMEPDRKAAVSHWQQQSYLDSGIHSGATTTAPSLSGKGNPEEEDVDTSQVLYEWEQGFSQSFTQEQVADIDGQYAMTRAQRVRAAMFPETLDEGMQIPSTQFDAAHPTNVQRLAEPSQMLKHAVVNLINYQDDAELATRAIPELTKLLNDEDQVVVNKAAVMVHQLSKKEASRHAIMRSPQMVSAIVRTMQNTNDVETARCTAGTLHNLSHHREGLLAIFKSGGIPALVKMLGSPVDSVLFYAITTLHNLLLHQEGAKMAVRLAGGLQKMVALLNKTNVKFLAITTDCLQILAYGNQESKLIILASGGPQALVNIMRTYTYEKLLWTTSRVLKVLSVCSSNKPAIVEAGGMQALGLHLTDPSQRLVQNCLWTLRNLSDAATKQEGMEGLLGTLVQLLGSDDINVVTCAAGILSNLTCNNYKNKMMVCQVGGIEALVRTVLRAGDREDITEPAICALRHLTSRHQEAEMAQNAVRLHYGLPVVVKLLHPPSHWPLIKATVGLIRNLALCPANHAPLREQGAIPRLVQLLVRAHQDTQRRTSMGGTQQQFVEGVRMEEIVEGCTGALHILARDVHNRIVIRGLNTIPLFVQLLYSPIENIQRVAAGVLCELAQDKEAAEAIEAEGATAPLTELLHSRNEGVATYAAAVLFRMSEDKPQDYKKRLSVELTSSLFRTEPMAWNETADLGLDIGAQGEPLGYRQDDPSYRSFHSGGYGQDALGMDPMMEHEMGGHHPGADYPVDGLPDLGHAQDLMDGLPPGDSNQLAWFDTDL

T2: beta-catenin (in DLD1 TCF/LEF luciferase reporter cells) (UniProt P35222 1-781)
T2 sequence (looked up): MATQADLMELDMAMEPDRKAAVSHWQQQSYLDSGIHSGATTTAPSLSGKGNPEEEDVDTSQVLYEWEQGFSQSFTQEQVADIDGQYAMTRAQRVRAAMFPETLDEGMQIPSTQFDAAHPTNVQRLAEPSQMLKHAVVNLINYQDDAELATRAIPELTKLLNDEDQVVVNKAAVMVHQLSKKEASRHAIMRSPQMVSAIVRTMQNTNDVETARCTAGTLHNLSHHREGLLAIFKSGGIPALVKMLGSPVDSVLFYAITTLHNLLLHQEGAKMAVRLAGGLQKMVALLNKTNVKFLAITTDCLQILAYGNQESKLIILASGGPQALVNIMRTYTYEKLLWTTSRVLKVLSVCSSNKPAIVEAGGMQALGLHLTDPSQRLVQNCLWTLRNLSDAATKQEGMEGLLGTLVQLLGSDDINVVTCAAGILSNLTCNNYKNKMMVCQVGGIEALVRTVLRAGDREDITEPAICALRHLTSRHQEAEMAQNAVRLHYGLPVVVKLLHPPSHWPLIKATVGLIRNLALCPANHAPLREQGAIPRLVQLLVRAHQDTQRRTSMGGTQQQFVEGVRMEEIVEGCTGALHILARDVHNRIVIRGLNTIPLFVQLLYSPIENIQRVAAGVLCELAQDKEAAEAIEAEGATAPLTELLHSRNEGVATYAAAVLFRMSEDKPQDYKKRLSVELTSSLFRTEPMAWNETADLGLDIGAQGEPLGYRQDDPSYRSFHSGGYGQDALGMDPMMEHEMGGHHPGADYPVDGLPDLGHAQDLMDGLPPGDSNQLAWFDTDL

T3: beta-catenin (Homo sapiens (Human), UniProt P35222 1-781)
T3 construct: The FP protocol says full-length beta-Catenin (Uniprot ID P35222); also called full-length beta-Catenin; bCat
T3 sequence: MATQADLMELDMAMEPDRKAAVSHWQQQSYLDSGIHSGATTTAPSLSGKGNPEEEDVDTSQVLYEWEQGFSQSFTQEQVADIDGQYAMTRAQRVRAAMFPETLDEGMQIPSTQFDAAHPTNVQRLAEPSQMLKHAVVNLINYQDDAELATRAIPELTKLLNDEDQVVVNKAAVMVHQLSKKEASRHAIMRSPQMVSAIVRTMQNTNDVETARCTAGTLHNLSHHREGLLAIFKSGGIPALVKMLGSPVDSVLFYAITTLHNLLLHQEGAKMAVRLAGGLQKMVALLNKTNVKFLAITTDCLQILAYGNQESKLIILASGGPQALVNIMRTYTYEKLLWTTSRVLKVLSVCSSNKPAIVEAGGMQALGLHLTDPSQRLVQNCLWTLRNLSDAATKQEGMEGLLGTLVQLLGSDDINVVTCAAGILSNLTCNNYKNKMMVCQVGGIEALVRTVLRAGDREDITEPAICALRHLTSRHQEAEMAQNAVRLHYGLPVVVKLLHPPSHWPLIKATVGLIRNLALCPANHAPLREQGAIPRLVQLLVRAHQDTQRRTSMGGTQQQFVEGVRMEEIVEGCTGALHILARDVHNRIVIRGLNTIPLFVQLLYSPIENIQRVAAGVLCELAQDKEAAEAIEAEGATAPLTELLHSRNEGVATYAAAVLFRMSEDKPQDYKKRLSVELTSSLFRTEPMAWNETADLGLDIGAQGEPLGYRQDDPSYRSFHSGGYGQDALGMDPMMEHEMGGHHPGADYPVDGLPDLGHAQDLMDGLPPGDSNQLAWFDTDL

B1: I-1418 (peptide)
peptide: Ac-[αAllylPro]DL[B5(4)]DDAAFL[PyrS2″][Phe(2-Cl)][Bta]L-NH2
modifications: staple 1-4, 4-11; also: staple isomer composition of earlier HPLC peak
notes: Stapled peptide; staple isomer composition of the earlier HPLC peak

target: T1, Bcat-Halo; assay: cell-based or functional assay

Binder	NanoBRET Abs IC50 [nM]
Ac-[αAllylPro]D[tBuAla][B5(4)]DDAAFL[PyrS2][3Thi][Phe(3,4-F2)]Q-NH2 (staple 1-4, 4-11) [I-1427]	30400
Ac-[αAllylPro]D[tBuAla][B5(4)]DDAAFL[PyrS2][3Thi]WQ-NH2 (staple 1-4, 4-11) [I-1431]	14600
Ac-[αAllylPro]D[tBuAla][B5(4)]DDAAFL[PyrS2][3Thi][Phe(3,4-F2)]S-NH2 (staple 1-4, 4-11) [I-1428]	40200
B1	> 20000
Ac-[αAllylPro]D[tBuAla][B5(4)]DDAAFL[PyrS2][3Thi]WS-NH2 (staple 1-4, 4-11) [I-1432]	14500

target: T2, beta-catenin (in DLD1 TCF/LEF …); assay: cell-based or functional assay

Binder	DLD1 4% Abs IC50 [nM]
[αAllylPro]D[tBuAla][B5(4)]D[Phe(3-COOH)]AAFF[PyrS2″][Phe(2-Cl)][Bta]Q-NH2 (staple 1-4, 4-11) [I-1338]	3400
[αAllylPro]D[tBuAla][B5(4)]D[Phe(3-COOH)]AAFF[PyrS2″][Phe(2-CF3)][Bta]Q-NH2 (staple 1-4, 4-11) [I-1341]	3200
[αAllylPro]D[tBuAla][B5(4)]D[Phe(3-COOH)]AAFL[PyrS2(4)][2F3MeF][Bta]Q-NH2 (staple 1-4, 4-11; not fully specified; reading uncertain) [I-1335]	900
[αAllylPro]D[tBuAla][B5]D[Phe(3-COOH)]AAFL[PyrS2][Phe(2-Cl)][Bta]S-NH2 (staple 1-4, 4-11) [I-1333]	1200
[αAllylPro]D[tBuAla][B5(4)]D[Phe(3-COOH)]AAFL[PyrS2″][Phe(2-Cl)][Bta]Q-NH2 (staple 1-4, 4-11) [I-1332]	900
[αAllylPro]D[tBuAla][B5]D[Phe(3-COOH)]AAFL[PyrS2][Phe(2-CF3)][Bta]S-NH2 (staple 1-4, 4-11) [I-1336]	700

target: T3, beta-catenin; assay: fluorescence polarization competition; full-length beta-catenin with 5FAM-TCF4(10-53) probe as competitor
Method in brief: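 Readings followed a light-protected 60-minute incubation at 20° C. Each read was done in duplicate. Curves were fit with a 1:1 binding model including hill slope, and stated concentrations are final.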

Binder	EC50 [nM]
Ac-[αAllylPro]DL[B5(4)]DDAAFL[PyrS2″][Phe(2-Cl)][Bta]L-NH2 (staple 1-4, 4-11; also: staple isomer composition of earlier HPLC peak, stapled peptide)	106
Ac-[αAllylPro]DL[B5(19)]DDAAFL[PyrS2]F[Bta]Q-NH2 (staple 1-4, 4-11, stapled peptide) [I-1402]	9
Ac-[αAllylPro]DN[B5(4)]DDAAFL[PyrS2″][Phe(2-Cl)][Bta]L-NH2 (staple 1-4, 4-11, stapled peptide) [I-1422]	388
